Columns and labels:
[1] = molecular target: RAB-GDI1 (UniProt P31150); assay: GFP-Trap co-IP, immunoblot; details: reference: wild type; sites T86
[2] = molecular target: MADD (DENN/MADD, RAB3-GEP) (UniProt Q8WXG6); assay: GFP-Trap co-IP, HA immunoblot; details: reference: wild type; sites T86

## RAB3A (from UniProt P20336) T86A
[1]
  binding against the reference: stronger
[2]
  binding against the reference: stronger

Reference: article PMC10959120
